Experiments:
Assay in all cases: cell-based or functional assay
[1] = target: HIV-1 Env of isolate MG RM-C-019 (subtype C) (HIV-1)
[2] = target: HIV-1 Env of isolate MG RM-C-027 (subtype C) (HIV-1)
[3] = target: HIV-1 Env of isolate TRJ04551.58 (subtype B) (HIV-1)
[4] = target: HIV-1 Env of isolate 97ZA012 (subtype C) (HIV-1)
[5] = target: HIV-1 Env of isolate MGRM-Chronic-B-012 (subtype B) (HIV-1)
[6] = target: HIV-1 Env of isolate MGRM-Chronic-B-003 (subtype B) (HIV-1)
[7] = target: HIV-1 Env of isolate MG RM-C-026 (subtype C) (HIV-1)
[8] = target: HIV-1 Env of isolate TRO.11 (subtype B) (HIV-1)
[9] = target: HIV-1 Env of isolate MGRM-Chronic-B-004 (subtype B) (HIV-1)
[10] = target: HIV-1 Env of isolate THR0.18 (subtype B) (HIV-1)
[11] = target: HIV-1 Env of isolate MG RM-C-024 (subtype C) (HIV-1)
[12] = target: HIV-1 Env of isolate MGRM-Chronic-B-017 (subtype B) (HIV-1)
[13] = target: HIV-1 Env of isolate SC422661.8 (subtype B) (HIV-1)
[14] = target: HIV-1 Env of isolate PVO.4 (subtype B) (HIV-1)
[15] = target: HIV-1 92RW008 Env (HIV-1)
[16] = target: HIV-1 Env of isolate QH0692.42 (subtype B) (HIV-1)
[17] = target: HIV-1 Env of isolate MGRM-Chronic-B-010 (subtype B) (HIV-1)
[18] = target: HIV-1 Env of isolate APV_13 (subtype B) (HIV-1)
[19] = target: HIV-1 Env of isolate MGRM-Chronic-B-008 (subtype B) (HIV-1)
[20] = target: HIV-1 Env of isolate JRFL (subtype B) (HIV-1)
[21] = target: HIV-1 Env of isolate MGRM-Chronic-B-001 (subtype B) (HIV-1)
[22] = target: HIV-1 Env of isolate APV_17 (subtype B) (HIV-1)
[23] = target: HIV-1 Env of isolate MG RM-C-028 (subtype C) (HIV-1)
[24] = target: HIV-1 Env of isolate NL43 (subtype B) (HIV-1)
[25] = target: HIV-1 Env of isolate JRCSF (subtype B) (HIV-1) (UniProt P20871)
[26] = target: HIV-1 Env of isolate MG RM-C-025 (subtype C) (HIV-1)
[27] = target: HIV-1 Env of isolate MGRM-Chronic-B-018 (subtype B) (HIV-1)
[28] = target: HIV-1 Env of isolate SF162 (subtype B) (HIV-1) (UniProt P19550)
[29] = target: HIV-1 Env of isolate 98IN022 (subtype C) (HIV-1)
[30] = target: HIV-1 Env of isolate 6535.3 (subtype B) (HIV-1)
[31] = target: HIV-1 Env of isolate 93TH305 (subtype B) (HIV-1)
[32] = target: HIV-1 Env of isolate 92 BR 020 (subtype B) (HIV-1)
[33] = target: HIV-1 Env of isolate 93IN905 (subtype C) (HIV-1)
[34] = target: HIV-1 Env of isolate MG RM-C-020 (subtype C) (HIV-1)
[35] = target: HIV-1 Env of isolate 93MW959 (subtype C) (HIV-1)
[36] = target: HIV-1 Env of isolate MGRM-Chronic-B-020 (subtype B) (HIV-1)
[37] = target: HIV-1 Env of isolate MG RM-C-023 (subtype C) (HIV-1)
[38] = target: HIV-1 Env of isolate MGRM-Chronic-B-024 (subtype B) (HIV-1)
[39] = target: HIV-1 Env of isolate MGRM-Chronic-B-011 (subtype B) (HIV-1)
[40] = target: HIV-1 Env of isolate VLGCB3 (subtype B) (HIV-1)
[41] = target: HIV-1 Env of isolate MGRM-Chronic-B-002 (subtype B) (HIV-1)
[42] = target: HIV-1 Env of isolate MG RM-C-022 (subtype C) (HIV-1)
[43] = target: HIV-1 Env of isolate CAAN.A2 (subtype B) (HIV-1)
[44] = target: HIV-1 Env of isolate MGRM-Chronic-B-023 (subtype B) (HIV-1)
[45] = target: HIV-1 Env of isolate APV_6 (subtype B) (HIV-1)

Chain of 4970_K22 (PGT-144) (antibody) (VH): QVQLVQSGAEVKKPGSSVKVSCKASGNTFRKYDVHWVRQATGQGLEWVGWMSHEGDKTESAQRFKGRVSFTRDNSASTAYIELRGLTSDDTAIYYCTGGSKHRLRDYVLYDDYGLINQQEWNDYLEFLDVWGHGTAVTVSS
Chain of 4970_K22 (PGT-144) (antibody) (VL): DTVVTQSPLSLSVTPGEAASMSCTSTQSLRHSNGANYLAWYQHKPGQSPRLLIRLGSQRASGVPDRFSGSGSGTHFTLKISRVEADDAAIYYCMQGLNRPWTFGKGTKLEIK
Chain of 4980_N08 (PGT-143) (antibody) (VH): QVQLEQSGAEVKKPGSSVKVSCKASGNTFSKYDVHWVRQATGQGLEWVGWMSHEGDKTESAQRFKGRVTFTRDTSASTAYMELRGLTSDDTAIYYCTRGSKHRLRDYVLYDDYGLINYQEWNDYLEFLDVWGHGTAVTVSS
Chain of 4980_N08 (PGT-143) (antibody) (VL): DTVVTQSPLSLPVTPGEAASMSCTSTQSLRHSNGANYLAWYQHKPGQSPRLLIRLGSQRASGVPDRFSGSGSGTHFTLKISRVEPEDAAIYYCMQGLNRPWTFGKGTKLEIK

## 4970_K22 (PGT-144) (antibody)
[1]
  IC50: 0.513 µg/mL
[2]
  IC50: > 50 µg/mL
[3]
  IC50: > 50 µg/mL
[4]
  IC50: > 50 µg/mL
[5]
  IC50: > 50 µg/mL
[6]
  IC50: 7.41 µg/mL
[7]
  IC50: > 50 µg/mL
[8]
  IC50: 4.73 µg/mL
[9]
  IC50: 9.41 µg/mL
[10]
  IC50: 0.029 µg/mL
[11]
  IC50: 2.06 µg/mL
[12]
  IC50: 0.712 µg/mL
[13]
  IC50: > 50 µg/mL
[14]
  IC50: 0.535 µg/mL
[15]
  IC50: > 50 µg/mL
[16]
  IC50: > 50 µg/mL
[17]
  IC50: > 50 µg/mL
[18]
  IC50: > 50 µg/mL
[19]
  IC50: > 50 µg/mL
[20]
  IC50: > 50 µg/mL
[21]
  IC50: > 50 µg/mL
[22]
  IC50: 10.3 µg/mL
[23]
  IC50: > 50 µg/mL
[24]
  IC50: > 50 µg/mL
[25]
  IC50: 0.149 µg/mL
[26]
  IC50: 17.6 µg/mL
[27]
  IC50: 2.4 µg/mL
[28]
  IC50: > 50 µg/mL
[29]
  IC50: 0.171 µg/mL
[30]
  IC50: > 50 µg/mL
[31]
  IC50: > 50 µg/mL
[32]
  IC50: 44 µg/mL
[33]
  IC50: 0.132 µg/mL
[34]
  IC50: 1.29 µg/mL
[35]
  IC50: 0.332 µg/mL
[36]
  IC50: > 50 µg/mL
[37]
  IC50: 0.38 µg/mL
[38]
  IC50: 0.04 µg/mL
[39]
  IC50: 5.64 µg/mL
[40]
  IC50: > 50 µg/mL
[41]
  IC50: > 50 µg/mL
[42]
  IC50: 2.58 µg/mL
[43]
  IC50: > 50 µg/mL
[44]
  IC50: > 50 µg/mL
[45]
  IC50: > 50 µg/mL

## 4980_N08 (PGT-143) (antibody)
[1]
  IC50: 0.004 µg/mL
[2]
  IC50: 0.598 µg/mL
[3]
  IC50: > 50 µg/mL
[4]
  IC50: > 50 µg/mL
[5]
  IC50: > 50 µg/mL
[6]
  IC50: 0.854 µg/mL
[7]
  IC50: > 50 µg/mL
[8]
  IC50: 0.219 µg/mL
[9]
  IC50: 0.395 µg/mL
[10]
  IC50: 0.016 µg/mL
[11]
  IC50: 0.05 µg/mL
[12]
  IC50: 0.145 µg/mL
[13]
  IC50: 2.02 µg/mL
[14]
  IC50: 0.162 µg/mL
[15]
  IC50: 0.385 µg/mL
[16]
  IC50: > 50 µg/mL
[17]
  IC50: > 50 µg/mL
[18]
  IC50: > 50 µg/mL
[19]
  IC50: > 50 µg/mL
[20]
  IC50: > 50 µg/mL
[21]
  IC50: > 50 µg/mL
[22]
  IC50: 1.11 µg/mL
[23]
  IC50: 12.4 µg/mL
[24]
  IC50: > 50 µg/mL
[25]
  IC50: 0.007 µg/mL
[26]
  IC50: 0.336 µg/mL
[27]
  IC50: 0.377 µg/mL
[28]
  IC50: > 50 µg/mL
[29]
  IC50: 0.001 µg/mL
[30]
  IC50: > 50 µg/mL
[31]
  IC50: 17.3 µg/mL
[32]
  IC50: 25.9 µg/mL
[33]
  IC50: 0.002 µg/mL
[34]
  IC50: 0.797 µg/mL
[35]
  IC50: 0.002 µg/mL
[36]
  IC50: > 50 µg/mL
[37]
  IC50: 0.148 µg/mL
[38]
  IC50: 0.01 µg/mL
[39]
  IC50: 1.56 µg/mL
[40]
  IC50: > 50 µg/mL
[41]
  IC50: > 50 µg/mL
[42]
  IC50: 0.103 µg/mL
[43]
  IC50: > 50 µg/mL
[44]
  IC50: 0.236 µg/mL
[45]
  IC50: 14 µg/mL

From patent publication US20160264649A1
